Results as given in PMC2854097 (Molecular Biology of the Cell, 2010).

Target: T1, GST-p23/Tmp21 (aa 1-219), from pEBG-p23/Tmp21 (full-length) (UniProt P49755 32-219)
T1 sequence (looked up): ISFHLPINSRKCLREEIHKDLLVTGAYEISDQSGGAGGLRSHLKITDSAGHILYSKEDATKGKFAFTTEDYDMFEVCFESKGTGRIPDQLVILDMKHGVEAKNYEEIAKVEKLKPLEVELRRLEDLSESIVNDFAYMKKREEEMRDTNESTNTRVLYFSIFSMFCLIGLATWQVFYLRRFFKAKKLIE
Assay: pull-down

B1: HA-β2-chimaerin (full-length) (natural protein, UniProt P52757-1 1-468, looked up)
chain: MAASSNSSLSGSSVSSDAEEYQPPIWKSYLYQLQQEAPRPKRIICPREVENRPKYYGREFHGIISREQADELLGGVEGAYILRESQRQPGCYTLALRFGNQTLNYRLFHDGKHFVGEKRFESIHDLVTDGLITLYIETKAAEYISKMTTNPIYEHIGYATLLREKVSRRLSRSKNEPRKTNVTHEEHTAVEKISSLVRRAALTHNDNHFNYEKTHNFKVHTFRGPHWCEYCANFMWGLIAQGVRCSDCGLNVHKQCSKHVPNDCQPDLKRIKKVYCCDLTTLVKAHNTQRPMVVDICIREIEARGLKSEGLYRVSGFTEHIEDVKMAFDRDGEKADISANVYPDINIITGALKLYFRDLPIPVITYDTYSKFIDAAKISNADERLEAVHEVLMLLPPAHYETLRYLMIHLKKVTMNEKDNFMNAENLGIVFGPTLMRPPEDSTLTTLHDMRYQKLIVQILIENEDVLF
Question: Which “fold increase in association with PMA against vehicle (densitometry)” value does the source give for B1 here?
Answer: ~7 fold
